Results on 4 substances are retold here after US20090035321A1, “Intercellular adhesion molecules and their binding ligands” (Boehringer Ingelheim Pharmaceuticals, Inc., published 2009).

For experiment [1], the target named is ICAM-1 N269QSQI/IQAEQ (human) (UniProt P05362). Description: 35S-HRV14 on COS cells.
Experiment [2] deals with ICAM-1 A115N/SV (printed A155N/SV at paragraph 410) (human) (UniProt P05362). Description: 35S-HRV14 on COS cells.
In a further experiment the target is ICAM-1 S5/T (human) (UniProt P05362). Kind of experiment: 35S-HRV14 on COS cells.
For experiment [3], the target named is Lymphocyte Function-associated Antigen-1 (LFA-1), on cells (human) (UniProt P20701).
The target is the same in experiment [4]. This is another data set of the same source.
In another experiment the target is ICAM-1 Y476/TAG (human) (UniProt P05362).
Experiment [5] concerns the target Intercellular Adhesion Molecule-1 (ICAM-1), wild type, on the cell surface (human) (UniProt P05362).
Another experiment addresses purified ICAM-1 (human) (UniProt P05362).
The target in experiment [6] is Intercellular Adhesion Molecule-1 (ICAM-1), wild type, on the cell surface (human) (UniProt P05362). This is another data set of the same source.

“human rhinovirus 14 (HRV14) (from UniProt P03303)”: the HRV Binding % (% of wild type) is 108 in [1], 12 in experiment [2] and 125 with ICAM-1 S5/T (human).

anti-LFA-1 antibody R3.1 came in with a % inhibition of the mixed lymphocyte reaction in experiment [3] of 93 % inhibition.

For the substance anti-LFA-1 monoclonal antibody TS1/18, the binding of JY cells to ICAM-1 in plastic-bound vesicles in experiment [4] amounted to 96 % inhibition.

As for monoclonal antibody RR1/1, the % of cells expressing ICAM-1 that bind LFA-1 in the presence of RR1/1 (with ICAM-1 Y476/TAG (human); in experiment [5]) was 0% each time. The substance further displayed a binding of JY cells to ICAM-1 in plastic-bound vesicles in the experiment with purified ICAM-1 (human) of 97 % inhibition. Moreover, the % inhibition of PMA-stimulated PHA-lymphoblast aggregation in experiment [6] came out at 51 % inhibition.
